Data as given in patent publication US9315838B2, “Method to increase algal biomass and enhance its quality for the production of fuel” (priority 2012, dated 2016).
Entries after “also recorded” stand apart in the source; their conditions may differ.

Tests used:
[1] = tested on: Chlamydomonas reinhardtii pgd1 mutant; experiment: Thiobarbituric acid reactive substances (TBARS) analysis following N deprivation; conditions: DCMU 2 μM, FIG. 8D
[2] = tested on: Chlamydomonas reinhardtii pgd1 mutant; experiment: Chlorosis, chlorophyll content and cell viability of N-deprived cultures with DCMU; conditions: DCMU 2 μM added to N-deprived (TAP-N) cultures
[3] = tested on: Chlamydomonas reinhardtii; experiment: TAG accumulation (ratio of fatty acids in TAG over total fatty acids) after N deprivation with DCMU; assay type: cell-based; conditions: 2 d of N deprivation, FIG. 8E
Experimental: FIG. 8. […] Two representative cultures per line are shown.
Strains and growth conditions.
(§1) Lipid extraction, thin-layer chromatography (TLC) of neutral lipids, transesterification and gas-liquid chromatography were done according to (Moellering and Benning 2010). Briefly, lipids were extracted from cell pellets with methanol, chloroform, 88% formic acid (2:1:0.1 by volume). To the extract 0.5 volume of 1M KCl, 0.2 M H3PO4 was added, mixed and phases were separated by low speed centrifugation. For TAG quantification, lipids were resolved by TLC on Silica G60 plates (EMD chemicals, #5721-7, http://www.emdchemicals.com) developed in petroleum ether-diethyl ether-acetic acid (80:20:1 by volume). Polar lipids were separated on the same plate using chloroform-methanol-acetic acid-H2O (75:13:9:3 by volume) as solvent. To analyze lyso-glycolipids during for the PGD1 assay, acetone-toluene-H2O (91:30:7.5 by volume) was used, instead. Brief exposure to iodine vapor was employed for visualization of lipids. Transesterification of each lipid and separation of fatty acid methyl esters by GLC were as previously described (Rossak et al. 1997). Transesterification was conducted on pellets with a known number of cells to determine the cellular total fatty acid content. Staining with α-naphtol (Benning et al. 1995) was used for the PGD1 assay to detect galactoglycerolipids.

[4] = PGD1 lipase assay on other major membrane lipids; assay type: biochemical, Chlamydomonas
Experimental: (§2) Lipid extraction, thin-layer chromatography (TLC) of neutral lipids, transesterification and gas-liquid chromatography were done according to (Moellering and Benning 2010). Briefly, lipids were extracted from cell pellets with methanol, chloroform, 88% formic acid (2:1:0.1 by volume). To the extract 0.5 volume of 1M KCl, 0.2 M H3PO4 was added, mixed and phases were separated by low speed centrifugation. For TAG quantification, lipids were resolved by TLC on Silica G60 plates (EMD chemicals, #5721-7, http://www.emdchemicals.com) developed in petroleum ether-diethyl ether-acetic acid (80:20:1 by volume). Polar lipids were separated on the same plate using chloroform-methanol-acetic acid-H2O (75:13:9:3 by volume) as solvent. […]
(§3) BL21 (codon+) E. coli strains harboring the empty pMK1006 vector or the pMK1006-PGD1 construct were grown to log phase at 37° C. […] Protein concentration was determined with Bio-Rad Protein Assay Dye Reagent Concentrate (http://www.bio-rad.com) according to the manufacturer's instructions.
(§4) To prepare lipid substrates from Chlamydomonas or E. coli cells, lipids were extracted from 48 hours N-deprived Chlamydomonas cells or IPTG induced E. coli cells expressing cucumber MGDG synthase (Shimojima et al. 1997) and resolved by polar TLC. […] Per assay 10 μg refolded PGD1 protein (quantified as stated above) in 50 μL protein refolding buffer was added. […]

[5] = PGD1 lipase assay on MGDG; assay type: biochemical
Experimental: as §1
BL21 (codon+) E. coli strains harboring the empty pMK1006 vector or the pMK1006-PGD1 construct were grown to log phase at 37° C. Isopropyl-β-D-thiogalactopyranoside was added to the final concentration of 0.5 mM to induce protein production. Cells were harvested after 3 hours of induction. To extract proteins, cells were resuspended in lysis buffer (20 mM Tris-HCl, pH 7.9, 10% glycerol, 150 mM NaCl, 1 mM dithiothreitol). The mixture was then frozen in liquid nitrogen and thawed at room temperature for three cycles and sonicated to lyse cells. Lysates were centrifuged at 21,000×g for 15 minutes to obtain inclusion bodies. Inclusion bodies were washed with 5 mL/g wash buffer (4 M urea, 0.5 M NaCl, 1 mM EDTA, 1 mg/ml sodium deoxycholate, 50 mM Tris-Cl pH 8.0) twice and denatured with solubilization buffer (8 M urea, 50 mM Tris-Cl pH 8.0, 10 mM dithiothreitol) by incubation at 50° C. for 20 min. Supernatant was collected after centrifugation at 21,000×g for 30 minutes and subjected to Ni-NTA affinity purification as described before (Lu and Benning 2009). His-tagged PGD1 protein was eluted with solubilization buffer containing 200 mM imidazole. […] After 1 hour incubation at 4° C., proteins were aliquoted and kept frozen at −80° C. Protein concentration was determined with Bio-Rad Protein Assay Dye Reagent Concentrate (http://www.bio-rad.com) according to the manufacturer's instructions.
as §4, with “TLC. Corresponding bands were isolated and lipids were recovered from silica gel by extraction with chloroform-methanol (1:1 by volume). For each PGD1 reaction, 75 nmol lipid substrates extracted from Chlamydomonas, or E. coli cells expressing the cucumber MGDG synthase were used.” for “TLC.”

[6] = PGD1 lipase assay on DGDG; assay type: biochemical, Chlamydomonas
Experimental: as §2, §3, §4

Molecule | burst of TBARS in the pgd1 mutant [1] | chlorosis ([2]; FIG. 8A, B) | viability loss ([2]; FIG. 8C) | pgd1 TAG phenotype ([3]; pgd1 mutant, DCMU 2 μM) | TAG levels of the wild-type parental strain ([3]; wild-type parental strain dw15-1, DCMU 2 μM) | generation of lyso-DGTS and lyso-PtdEtn ([4]; iodine staining, compared with Rhizopus lipase, FIGS. 16A and 16B) | Lyso-SQDG hydrolysis ([4]; sugar-specific staining, FIG. 16D) | apparent MGDG concentration up to which hydrolysis was linear in reaction velocity ([5]; E. coli-derived MGDG, 3 hours incubation, FIG. 15B) [µM] | time at which lyso-MGDG was detectable ([5]; E. coli-derived MGDG, FIG. 15A) [min] | positional preference of acyl group hydrolysis ([5]; E. coli-derived MGDG, compared with Rhizopus lipase digestion, FIG. 7H, 7I) | activity on E. coli-derived MGDG versus mature MGDG from Chlamydomonas ([5]; intensity of the lyso-MGDG band, FIG. 7B) | lyso-MGDG product generated ([5]; mature MGDG isolated from Chlamydomonas (predominantly 18:3/16:4), TLC, FIG. 7B) | formation of lyso-DGDG ([6]; DGDG extracted from Chlamydomonas, sugar-specific staining, FIG. 7C) | product formed in competition experiment ([6]; E. coli-derived MGDG and Chlamydomonas-derived DGDG offered in equal amounts)
CN(C)C(=O)Nc1ccc(Cl)c(Cl)c1 [DCMU, 3-(3,4-dichlorophenyl)-1,1-dimethylurea] | reverted | suppressed | suppressed | did not rescue | decrease; also recorded: lower levels of TAG | – | – | – | – | – | – | – | – | –
PGD1: recombinant Chlamydomonas galactoglycerolipid lipase (SEQ ID NO:1), His-tagged, purified from E. coli inclusion bodies and refolded (protein, listed as Chlamydomonas reinhardtii, His tag) MSQLLSHFVRVPTFASPDQVLREARDKERELQNARAPTDVSGFLAPVGVWELKHLRKLSSLTSLTYYMHLVTPRRLQLMHGLDLVVTSRACDVRPYEHNRTAEECGADGDGMAVSFAEARQVYAELKRGTGGASGSGSNGAAAAPVAVAAGVSNIVALPRELPFVPLPGGATEGGEAGAEAAAGAAAAAAAAAGEGTGPGAQGQGAGGLQLPLASTEAIGRMLRSPAEVVSAKLAEAALAASAAAAASPLGAAAESFYAGLASLPIPLAGGLVGANNKAANTLLAPPNGAAASSSGGGGGSGGAAAASEVVGSSRGAQGADPADPGAPNTSGKATAASIAAMATAELRSRRLGGTGPAKTGGSGAASSGSSSGGIGAGGMAPVTAGGMRLSPAATAFSAPPAATVSSLASTDAGTALVPVASSSAASLTFSSSSAYSCPSEWFVVDDPASATRIFVIQGSDTLDHWKLNLTFDPVVFEEPALGVKVHRGVYEAALVLYERFLPLVYEHLEASPFSKVTFTGHSIGGSMATLLMLMYRNRGVLPPHSIATVYTFGAPAVFCQQQQPAVADASSACCNGSSSNGSSTPASGSSSPRSGSPGSASASSLPAGSGSGAGGMSLWALGLSGFGMGGASLAGGGSTSAPSSTAGLASVDGGAVAAGGGGSGFNSSGLGFMSVEDPQAVSMPPGAAQAPSPASAPAPTAGPGHNSHSSHSKAGPAAAKSCACGVDGLLTRLGLAPHVVRNVVMARDVVPRAFACDYSLVADILKGWGPAFREHCCLNRHGRKHLYYFVGRMCILQPDAWHSFVGGDPEHPMLPPGPELYALAEPEDAAAARAHYPALSDLPILNAVTSNGHTRGSGGNGANAAVNAAVNASGPSAAASGGGGGSQQPTAAAAVPSTANFGTALVASAAQRERDARGGGSRLQPRSVVEAVWEIMDNPHPLETLADPGAYLASGSISRYHNPEHYTKALGRLTHLKRLAERRQHPHGQAQQKQAQPQAGEGGIRSMFAGRNIRSFGGGVRSGSGSGSAGRRGLLHQQAASNGTAADAVLASGAAGAAAAAWGSAPQLADLVSGNGGRASAGYEGGVWDSSDGLDLHLSDFMGASAVGAADPHACR | – | – | – | – | – | detectable by iodine staining, but at much lower levels | not detectable | ≤ 300 | 30 | prefers acyl groups at the sn-1 position | more active | rather faint | no formation of lyso-DGDG was detected | only lyso-MGDG was formed
